Experimental data: JP2005325133A (dated 2005)
Blank lines part the entries; values can stand above or below the binder they belong to. cellulose membrane = not defined here

Columns and labels:
[1] = target: T1, 13-mer peptide, amino acids 65-77 of HLA-DR β chain (DRB1*15011), SEQ ID NO 84 (human, reading uncertain); test: SPOT peptide membrane, chemiluminescence (LumiImager)
T1 construct: SPOT peptide; also called 配列番号84; 65番目〜77番目
T1 peptide: Ac-KDILEQARAAVDT-{cellulose membrane}

[2] = target: T2, 13-mer peptide, amino acids 63-75 of HLA-DR β chain (DRB1*15011), SEQ ID NO 83 (human, reading uncertain); test: as above
T2 construct: SPOT peptide; also called 配列番号83; 63番目〜75番目
T2 peptide: Ac-SQKDILEQARAAV-{cellulose membrane}

[3] = target: T3, 13-mer peptide, amino acids 61-73 of HLA-DR β chain (DRB1*15011), SEQ ID NO 82 (human, reading uncertain); test: SPOT peptide membrane
T3 construct: SPOT peptide on cellulose membrane (JERINI); also called 配列番号82; 61番目〜73番目
T3 peptide: Ac-WNSQKDILEQARA-{cellulose membrane}

[4] = target: T3, 13-mer peptide, amino acids 61-73 of …; test: SPOT peptide membrane, chemiluminescence (LumiImager)
[5] = target: T4, SEQ ID NO 35 (human); test: peptide spot blot, antibody 1 μg/mL, chemiluminescence (LAS2000)
T4 construct: One of 16 peptides covering the polymorphic variants of HLA-DR β chain 61-73; also called 配列番号35
T4 peptide: WNSQKDLLEQARA

[6] = target: T5, SEQ ID NO 36 (human); test: as above
T5 construct: One of 16 peptides covering the polymorphic variants of HLA-DR β chain 61-73; also called 配列番号36
T5 peptide: WNSQKDLLEQKRG

[7] = target: T6, SEQ ID NO 38 (human); test: as above
T6 construct: One of 16 peptides covering the polymorphic variants of HLA-DR β chain 61-73; also called 配列番号38
T6 peptide: WNSQKDLLERRRA

[8] = target: T7, SEQ ID NO 45 (human); test: as above
T7 construct: also called 配列番号45
T7 peptide: WASQKDLLEQRRA

[9] = target: T8, SEQ ID NO 37 (human); test: as above
T8 construct: One of 16 peptides covering the polymorphic variants of HLA-DR β chain 61-73; also called 配列番号37
T8 peptide: WNSQKDLLEDRRA

[10] = target: T9, SEQ ID NO 34 (human); test: as above
T9 construct: One of 16 peptides covering the polymorphic variants of HLA-DR β chain 61-73; also called 配列番号34
T9 peptide: WNSQKDLLEQRRA

[11] = target: T10, SEQ ID NO 33 (human); test: as above
T10 construct: One of 16 peptides covering the polymorphic variants of HLA-DR β chain 61-73; also called 配列番号33
T10 peptide: WNSQKDILEQARA

[12] = target: T11, SEQ ID NO 32 (human); test: as above
T11 construct: One of 16 peptides covering the polymorphic variants of HLA-DR β chain 61-73; also called 配列番号32
T11 peptide: WNSQKDILEDKRA

[13] = target: T12, SEQ ID NO 42 (human); test: as above
T12 construct: also called 配列番号42
T12 peptide: WNSQKDLLEQARA

[14] = target: T13, SEQ ID NO 31 (human); test: as above
T13 construct: One of 16 peptides covering the polymorphic variants of HLA-DR β chain 61-73; also called 配列番号31
T13 peptide: WNSQKDILEDRRG

[15] = target: T14, SEQ ID NO 28 (human); test: as above
T14 construct: One of 16 peptides covering the polymorphic variants of HLA-DR β chain 61-73; also called 配列番号28
T14 peptide: WNSQKDILEDERA

[16] = target: T15, SEQ ID NO 41 (human); test: as above
T15 construct: also called 配列番号41
T15 peptide: WNSQKDLLEARRA

[17] = target: T16, SEQ ID NO 39 (human); test: as above
T16 construct: One of 16 peptides covering the polymorphic variants of HLA-DR β chain 61-73; also called 配列番号39
T16 peptide: WNSQKDLLEDERA

[18] = target: T17, SEQ ID NO 26 (human); test: as above
T17 construct: One of 16 peptides covering the polymorphic variants of HLA-DR β chain 61-73; also called 配列番号26
T17 peptide: WNSQKDFLEDERA

[19] = target: T18, SEQ ID NO 47 (human); test: as above
T18 construct: also called 配列番号47
T18 peptide: WNSAKDLLEQRRA

[20] = target: T19, SEQ ID NO 40 (human); test: as above
T19 construct: also called 配列番号40
T19 peptide: WNSQKDALEQRRA

[21] = target: T20, SEQ ID NO 24 (human); test: as above
T20 construct: One of 16 peptides covering the polymorphic variants of HLA-DR β chain 61-73; also called 配列番号24
T20 peptide: WNSQKDFLEDRRA

[22] = target: T21, SEQ ID NO 30 (human); test: as above
T21 construct: One of 16 peptides covering the polymorphic variants of HLA-DR β chain 61-73; also called 配列番号30
T21 peptide: WNSQKDILEDRRA

[23] = target: T22, SEQ ID NO 25 (human); test: as above
T22 construct: One of 16 peptides covering the polymorphic variants of HLA-DR β chain 61-73; also called 配列番号25
T22 peptide: WNSQKDFLERRRA

[24] = target: T23, SEQ ID NO 27 (human); test: as above
T23 construct: One of 16 peptides covering the polymorphic variants of HLA-DR β chain 61-73; also called 配列番号27
T23 peptide: WNSQKDFLEQARA

[25] = target: T24, SEQ ID NO 44 (human); test: as above
T24 construct: also called 配列番号44
T24 peptide: ANSQKDLLEQRRA

[26] = target: T25, SEQ ID NO 29 (human); test: as above
T25 construct: One of 16 peptides covering the polymorphic variants of HLA-DR β chain 61-73; also called 配列番号29
T25 peptide: WNSQKDILEQKRG

[27] = target: T26, SEQ ID NO 46 (human); test: as above
T26 construct: also called 配列番号46
T26 peptide: WNAQKDLLEQRRA

[28] = target: T27, SEQ ID NO 43 (human); test: as above
T27 construct: also called 配列番号43
T27 peptide: WNSQKDLLEQRRG

[29] = target: T28, HLA-DR DRB1*15011/DRA*0101 forcibly expressed on L cells (ATCC CCL-1) (human, UniProt P01903 26-254; P01911 30-266); test: flow cytometry on transfected L cells
T28 construct: whole, on cells

[30] = target: T29, SEQ ID NO 50 (human); test: peptide spot blot, chemiluminescence (LAS2000)
T29 construct: also called 配列番号50
T29 peptide: WNSQKDLLAQRRA

[31] = target: T30, SEQ ID NO 51 (human); test: peptide spot blot, chemiluminescence (LAS2000)
T30 construct: also called 配列番号51
T30 peptide: WNSQKDLLEQRAA

[32] = target: T31, SEQ ID NO 49 (human); test: peptide spot blot, chemiluminescence (LAS2000)
T31 construct: also called 配列番号49
T31 peptide: WNSQKALLEQRRA

[33] = target: T32, SEQ ID NO 48 (human); test: peptide spot blot, chemiluminescence (LAS2000)
T32 construct: also called 配列番号48
T32 peptide: WNSQADLLEQRRA

binding result [1]: binds | binding result [2]: binds | binding result [3]: binds
B1: human anti-HLA-DR monoclonal antibody HD4 (hybridoma HD4, FERM BP-7771) (antibody, V domains shown)
VH: EVQLLESGGGLVQPGGSLRLSCAASGFTFSSYAMTWVRQAPGKGLEWVSGISGGGDSTYYADSVKGRFTISRDNSKNTLYLQMNSLRAEDTAVYYCARDHGSGSYYPYWFDYWGQGTLVTVSS
VL: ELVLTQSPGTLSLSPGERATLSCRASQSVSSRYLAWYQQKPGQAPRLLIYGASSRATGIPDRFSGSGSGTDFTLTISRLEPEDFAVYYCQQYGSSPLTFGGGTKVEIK
notes: Human IgG with kappa light chain from a KM mouse hybridoma

binding result [4]: binds | binding result [1]: binds | binding result [2]: binds | binding result [5]: binds | binding result [6]: binds | binding result [7]: binds | binding result [8]: binds | binding result [9]: binds | binding result [10]: binds | binding result [11]: binds | binding result [12]: binds | binding result [13]: binds | binding result [14]: binds | binding result [15]: binds | binding result [16]: binds | binding result [17]: binds | binding result [18]: binds | binding result [19]: binds | binding result [20]: binds | binding result [21]: binds | binding result [22]: binds | binding result [23]: binds | binding result [24]: binds | binding result [25]: binds | binding result [26]: binds | binding result [27]: binds | binding result [28]: binds | binding result [29]: binds | binding result [30]: no binding (tested: 1μg/mL) | binding result [31]: no binding (tested: 1μg/mL) | binding result [32]: no binding (tested: 1μg/mL) | binding result [33]: no binding (tested: 1μg/mL)
B2: human anti-HLA-DR monoclonal antibody HD8 (hybridoma HD8, FERM BP-7773) (antibody, V domains shown)
VH: QVQLQHSGPGLVKPSQTLSLTCAISGDSVSSNSASWNWIRQSPSRGLEWLGRTYYRSKWYNDYAVSVKSRIVINPDTSKNQFSLQLNSVTPEDTAVYYCARENFYGSETCHKKYYCYGMDVWGQGTTVTVSS
VL: AIQLTQSPSSLSASVGDRVTITCRASQGISSALAWYQQKPGKAPKLLIYDASSLESGVPSRFSGSGSGTDFTLTISSLQPEDFATYYCQQFNSFPLTFGGGTKVEIK
notes: as for B1
